Substitutions are numbered along the chain they refer to. Where two headings read alike, the source gives them in different places.
Tests used:
[1] = target: T1, recombinant human IL-8, (ser-IL-8)72 (human, UniProt P10145 28-99, In some assays the protein was iodinated (125I on tyrosine) or coated on a plate. The letters are unchanged.); assay: cell-based or functional assay
T1 sequence: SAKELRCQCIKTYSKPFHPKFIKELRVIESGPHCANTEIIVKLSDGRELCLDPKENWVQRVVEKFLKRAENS

human monomeric IL-8 = human monomeric IL-8 (human); assay: cell-based or functional assay
rabbit IL-8 [2] = target: T2, rabbit IL-8 (rabbit, UniProt P19874 23-101, limits assumed); assay: cell-based or functional assay
T2 sequence (looked up): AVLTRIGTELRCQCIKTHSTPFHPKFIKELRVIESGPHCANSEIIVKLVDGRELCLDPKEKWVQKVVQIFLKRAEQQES

[3] = target: T1, recombinant human IL-8, (ser-IL-8)72; assay: inhibition of 125I-IL-8 binding to IL-8 receptors on human neutrophils; the legend column has no head, the text calls the values of this figure IC50's
[4] = target: T1, recombinant human IL-8, (ser-IL-8)72; assay: cell-based or functional assay; remark: listed apart in the source
rabbit IL-8 [5] = target: T2, rabbit IL-8; assay: cell-based or functional assay; remark: listed apart in the source
[6] = target: T1, recombinant human IL-8, (ser-IL-8)72; assay: 125I-IL-8 neutrophil competition; reference not named in the sentence (chimeric F(ab) by Table 4)
[7] = target: T1, recombinant human IL-8, (ser-IL-8)72; assay: inhibition of 125I-IL-8 binding to the IL-8 receptors on human neutrophils (Bound/Total against cold ligand in nM)
[8] = target: T1, recombinant human IL-8, (ser-IL-8)72; assay: as above; remark: listed apart in the source
[9] = target: T1, recombinant human IL-8, (ser-IL-8)72; assay: 125I-IL-8 neutrophil competition, against F(ab)-1
rhesus IL-8 = target: T3, rhesus IL-8 (rhesus, UniProt P67813 23-101, limits assumed); assay: cell-based or functional assay
T3 sequence (looked up): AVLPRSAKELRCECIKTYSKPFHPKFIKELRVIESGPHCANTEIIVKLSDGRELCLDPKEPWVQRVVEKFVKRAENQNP

B1: 6G4V11N35A F(ab')2 leucine zipper (other)
light: DIQMTQSPSSLSASVGDRVTITCRSSQSLVHGIGATYLHWYQQKPGKAPKLLIYKVSNRFSGVPSRFSGSGSGTDFTLTISSLQPEDFATYYCSQSTHVPLTFGQGTKVEIKRTVAAPSVFIFPPSDEQLKSGTASVVCLLNNFYPREAKVQWKVDNALQSGNSQESVTEQDSKDSTYSLSSTLTLSKADYEKHKVYACEVTHQGLSSPVTKSFNRGEC
heavy: not shown
Q: Which results are given for B1?
A: average IC50, neutrophil chemotaxis [1]: 1.5 nM; average IC50, neutrophil chemotaxis (human monomeric IL-8): 1 nM; average IC50, neutrophil chemotaxis (rabbit IL-8 [2]): 4 nM

B2: 6G4V11N35A F(ab')2 modified with a single 20 kD linear PEG molecule (other)
light: B1 light
heavy: not shown
modifications: may carry PEG on a lysine or the N-terminus; site not defined
notes: one 20 kD linear PEG-succinimide (M-SPA-20000) per F(ab')2, on a primary amine; also called single 20 kD linear PEG-modified F(ab')2; linear(1)20 KDa-(N)-(Fab')2
Q: Which IC50 [3] does the source give for B2 here?
A: Its IC50 is 0.296 nM.

B3: 6G4V11N35A F(ab')2 modified with a single 40 kD branched PEG molecule (other)
light: B1 light
heavy: not shown
modifications: may carry PEG on a lysine or the N-terminus; site not defined
notes: one 40 kD branched PEG-succinimide (PEG2-NHS-40 KDa) per F(ab')2, on a primary amine; also called single 40 kD branched PEG-modified F(ab')2; branched(1)40 KDa-(N)-(Fab')2
Q: How did the IC50 [3] turn out when B3 was run?
A: Its IC50 is 0.38 nM.

B4: chimeric 6G4.2.5 Fab (Fab, V domains shown)
VH: EIQLQQSGPELMKPGASVKISCKASGYSFSSHYMHWVKQSHGKSLEWIGYIDPSNGETTYNQKFKGKATLTVDTSSSTANVHLSSLTSDDSAVYFCARGDYRYNGDWFFDVWGAGTTVTVSS
VL: DIVMTQTPLSLPVSLGDQASISCRSSQSLVHGIGNTYLHWYLQKPGQSPKLLIYKVSNRFSGVPDRFSGSGSGTDFTLRISRVEAEDLGLYFCSQSTHVPLTFGAGTKLELKR
Q: For B4, which “IC50 (4 parameter fit) of the inhibition of human IL-8 (100 nM) stimulated elastase release from human neutrophils” value [4] is on record?
A: Its value is 0.635 molar ratio Fab:IL-8 (x axis; 100 nM IL-8).

Q: What about the “IC50 (4 parameter fit) of the inhibition of rabbit IL-8 (100 nM) stimulated elastase release from human neutrophils (absorbance 405 nM)” value (rabbit IL-8 [5]) of the same binder?
A: Its value is 1.04 molar ratio Fab:rIL-8 (x axis; 100 nM rIL-8).

B5: humanized 6G425 F(ab)-1 (Fab, V domains shown)
VH: EVQLVESGGGLVQPGGSLRLSCAASGYSFSSHYMHWVRQAPGKGLEWVGYIDPSNGETTYNQKFKGRFTISRDNSKNTLYLQMNSLRAEDTAVYYCARGDYRYNGDWFFDVWGQGTLVTVSS
VL: DIQMTQSPSSLSASVGDRVTITCRSSQSLVHGIGNTYLHWYQQKPGKAPKLLIYKVSNRFSGVPSRFSGSGSGTDFTLTISSLQPEDFATYYCSQSTHVPLTFGQGTKVEIKR
notes: Fab with human kappa subgroup I light chain and human IgG1 subgroup III heavy chain of phagemid pEMX1; unaltered CDR swap; also called version 1; V1
Q: Which results are given for B5?
A: fold reduction in binding affinity [6]: 5.5 fold; IC50 (read off the curve) [7]: ~20 nM

B6: 6G4V11N35A Fab' modified with 40 kD linear PEG-maleimide (Fab, V domains shown)
VH: B5 VH with E6Q, I70L, L79A
VL: B5 VL with N35A
modifications: 40 kD linear methoxy-PEG-maleimide on the free cysteine in the hinge region
Q: How did the “IC50, PMN chemotaxis” value [1] turn out when B6 was run?
A: The value was 3.7 nM.

B7: full length 6G4V11N35E IgG1 (antibody, V domains shown, not shown: a dimerising Fc or GST)
VH: B5 VH with E6Q, I70L, L79A
VL: B5 VL with N35E
Q: With B7 as the binder, how does the “IC50, neutrophil chemotaxis” value [1] read?
A: Its value is 6 nM.

Q: And the “IC50, neutrophil chemotaxis” value (rabbit IL-8 [2])?
A: Its value is 2 nM.

B8: humanized 6G425 F(ab)-8 (Fab, V domains shown)
VH: B5 VH with R38K, I70L, L79A
VL: B5 VL
Q: Which “IC50, neutrophil chemotaxis” value [1] does the source give for B8 here?
A: The value was 12 nM.

B9: full length 6G4V11N35A IgG1 (antibody, V domains shown, not shown: a dimerising Fc or GST)
VH: B5 VH with E6Q, I70L, L79A
VL: B5 VL with N35A
Q: For B9, which “IC50, neutrophil chemotaxis” value [1] is on record?
A: Its value is 4 nM.

Q: And the “IC50, neutrophil chemotaxis” value (rabbit IL-8 [2])?
A: Its value is 4 nM.

B10: 6G4V11N35A Fab (Fab, V domains shown)
VH: B5 VH with E6Q, I70L, L79A
VL: B5 VL with N35A
notes: also called 6G4.2.5V11N35A Fab; Fab control
Q: With B10 as the binder, how does the “IC50, PMN chemotaxis” value [1] read?
A: The value was 0.8 nM.

Q: What about the “average IC50, neutrophil chemotaxis” value [1] of the same binder?
A: Its value is 2.7 nM.

Q: And the “average IC50, neutrophil chemotaxis” value (human monomeric IL-8)?
A: The value was 1 nM.

Q: What about the “average IC50, neutrophil chemotaxis” value (rabbit IL-8 [2]) of the same binder?
A: The value was 5 nM.

Q: What about the “IC50 (read off the curve)” value [8] of the same binder?
A: The value was roughly 1 nM.

B11: humanized 6G425 F(ab)-2 (Fab, V domains shown)
VH: B5 VH with F68A
VL: B5 VL
notes: template F(ab)-1; also called version 2
Q: For B11, which “fold decrease in IL-8 binding” value [9] is on record?
A: The value was less than 2 fold.

B12: humanized 6G425 F(ab)-9 (humanized 6G4V11 Fab) (Fab, V domains shown)
VH: B5 VH with E6Q, I70L, L79A
VL: B5 VL
Q: With B12 as the binder, how does the “IC50, neutrophil chemotaxis” value (human monomeric IL-8) read?
A: The value was roughly 15 nM.

Q: What about the “IC50, neutrophil chemotaxis” value (rhesus IL-8) of the same binder?
A: The value was roughly 22 nM.

B13: 6G4V11N35E Fab (Fab, V domains shown)
VH: B5 VH with E6Q, I70L, L79A
VL: B5 VL with N35E
Q: How did the “IC50, neutrophil chemotaxis” value [1] turn out when B13 was run?
A: Its value is roughly 1.2 nM.

B14: humanized 6G425 F(ab)-3 (Fab, V domains shown)
VH: B5 VH with R72V
VL: B5 VL
notes: template F(ab)-1; also called version 3
Q: For B14, which “fold decrease in IL-8 binding” value [9] is on record?
A: Its value is less than 2 fold.

B15: chimeric 5.12.14 Fab (Fab, V domains shown)
VH: EVQLVESGGGLVPPGGSLKLSCAASGFIFSSYGMSWVRQTPGKSLELVATINNNGDSTYYPDSVKGRFTISRDNAKNTLYLQMSSLKSEDTAMFYCARALISSATWFGYWGQGTLVTVSA
VL: DIVMTQSQKFMSTSVGDRVSVTCKASQNVGTNVAWYQQKPGQSPKALIYSSSYRYSGVPDRFTGSGSGTDFTLTISHVQSEDLADYFCQQYNIYPLTFGPGTKLELRR
Q: For B15, which “IC50 (4 parameter fit) of the inhibition of human IL-8 (100 nM) stimulated elastase release from human neutrophils” value [4] is on record?
A: The value was 0.643 molar ratio Fab:IL-8 (x axis; 100 nM IL-8).

Source: patent US7005504 (Genentech, dated 2006)
